B1: Pistol ribozyme (parent)
chain: GGGUCGUUGUUCCAUAAUCGCGUGGAUAUGGCACGCAAGUUUCUACCGGGCACCGUAAAUGUCCGACUGGAGCCGUUCGGGCGGCUAUAAACAGACCUCAGGCCCGAAGCGUGGCGGCACCUGCCGCCGGUGGUAAAAAAGAUCGGAAGAGCACACGUCU

Variants of: B1
Assay: aptazyme ON/OFF ratio, guanine; higher = stronger switching; co-transcriptional cleavage with and without guanine

Row | Variant | aptazyme ON/OFF ratio
1 | GGGUCGCCGCCUGAUAAUCGCGUGGAUAUGGCACGCAAGUUUCUACCGGGCACCGUAAAUGUCCGACUGGAGCCGUUCGGGCGGCUAUAAACAGACCUCAGGCCCGAAGCGUGGCGGCACCUGCCGCCGGUGGUAAAAAAGAUCGGAAGAGCACACGUCU [U7C U8C U10C U11C C12U C13G] | 1.15
2 | GGGUCGCCGCCUUAUAAUCGCGUGGAUAUGGCACGCAAGUUUCUACCGGGCACCGUAAAUGUCCGACUGGAGCCGUUCGGGCGGCUAUAAACAGACCUCAGGCCCGAAGCGUGGCGGCACCUGCCGCCGGUGGUAAAAAAGAUCGGAAGAGCACACGUCU [U7C U8C U10C U11C C12U C13U] | 1.19
3 | GGGUCGCCGCCUAAUAAUCGCGUGGAUAUGGCACGCAAGUUUCUACCGGGCACCGUAAAUGUCCGACUGGAGCCGUUCGGGCGGCUAUAAACAGACCUCAGGCCCGAAGCGUGGCGGCACCUGCCGCCGGUGGUAAAAAAGAUCGGAAGAGCACACGUCU [U7C U8C U10C U11C C12U C13A] | 1.31
4 | GGGUCGCCGCCCCAUAAUCGCGUGGAUAUGGCACGCAAGUUUCUACCGGGCACCGUAAAUGUCCGACUGGAGCCGUUCGGGCGGCUAUAAACAGACCUCAGGCCCGAAGCGUGGCGGCACCUGCCGCCGGUGGUAAAAAAGAUCGGAAGAGCACACGUCU [U7C U8C U10C U11C] | 1.46
5 | GGGUCGCCGCCGAAUAAUCGCGUGGAUAUGGCACGCAAGUUUCUACCGGGCACCGUAAAUGUCCGACUGGAGCCGUUCGGGCGGCUAUAAACAGACCUCAGGCCCGAAGCGUGGCGGCACCUGCCGCCGGUGGUAAAAAAGAUCGGAAGAGCACACGUCU [U7C U8C U10C U11C C12G C13A] | 1.1
6 | GGGUCGCCGCCGUAUAAUCGCGUGGAUAUGGCACGCAAGUUUCUACCGGGCACCGUAAAUGUCCGACUGGAGCCGUUCGGGCGGCUAUAAACAGACCUCAGGCCCGAAGCGUGGCGGCACCUGCCGCCGGUGGUAAAAAAGAUCGGAAGAGCACACGUCU [U7C U8C U10C U11C C12G C13U] | 1.31
7 | GGGUCGCCGCCGGAUAAUCGCGUGGAUAUGGCACGCAAGUUUCUACCGGGCACCGUAAAUGUCCGACUGGAGCCGUUCGGGCGGCUAUAAACAGACCUCAGGCCCGAAGCGUGGCGGCACCUGCCGCCGGUGGUAAAAAAGAUCGGAAGAGCACACGUCU [U7C U8C U10C U11C C12G C13G] | 1.3
8 | GGGUCGCCGCCCAAUAAUCGCGUGGAUAUGGCACGCAAGUUUCUACCGGGCACCGUAAAUGUCCGACUGGAGCCGUUCGGGCGGCUAUAAACAGACCUCAGGCCCGAAGCGUGGCGGCACCUGCCGCCGGUGGUAAAAAAGAUCGGAAGAGCACACGUCU [U7C U8C U10C U11C C13A] | 1.31
9 | GGGUCGCCGCCCGAUAAUCGCGUGGAUAUGGCACGCAAGUUUCUACCGGGCACCGUAAAUGUCCGACUGGAGCCGUUCGGGCGGCUAUAAACAGACCUCAGGCCCGAAGCGUGGCGGCACCUGCCGCCGGUGGUAAAAAAGAUCGGAAGAGCACACGUCU [U7C U8C U10C U11C C13G] | 1.28
10 | GGGUCGCCGCACAAUAAUCGCGUGGAUAUGGCACGCAAGUUUCUACCGGGCACCGUAAAUGUCCGACUGGAGCCGUUCGGGCGGCUAUAAACAGACCUCAGGCCCGAAGCGUGGCGGCACCUGCCGCCGGUGGUAAAAAAGAUCGGAAGAGCACACGUCU [U7C U8C U10C U11A C13A] | 1.33
11 | GGGUCGCCGCACGAUAAUCGCGUGGAUAUGGCACGCAAGUUUCUACCGGGCACCGUAAAUGUCCGACUGGAGCCGUUCGGGCGGCUAUAAACAGACCUCAGGCCCGAAGCGUGGCGGCACCUGCCGCCGGUGGUAAAAAAGAUCGGAAGAGCACACGUCU [U7C U8C U10C U11A C13G] | 1.18
12 | GGGUCGCCGCACUAUAAUCGCGUGGAUAUGGCACGCAAGUUUCUACCGGGCACCGUAAAUGUCCGACUGGAGCCGUUCGGGCGGCUAUAAACAGACCUCAGGCCCGAAGCGUGGCGGCACCUGCCGCCGGUGGUAAAAAAGAUCGGAAGAGCACACGUCU [U7C U8C U10C U11A C13U] | 1.31
13 | GGGUCGCCGCCAAAUAAUCGCGUGGAUAUGGCACGCAAGUUUCUACCGGGCACCGUAAAUGUCCGACUGGAGCCGUUCGGGCGGCUAUAAACAGACCUCAGGCCCGAAGCGUGGCGGCACCUGCCGCCGGUGGUAAAAAAGAUCGGAAGAGCACACGUCU [U7C U8C U10C U11C C12A C13A] | 1.34
14 | GGGUCGCCGCCAUAUAAUCGCGUGGAUAUGGCACGCAAGUUUCUACCGGGCACCGUAAAUGUCCGACUGGAGCCGUUCGGGCGGCUAUAAACAGACCUCAGGCCCGAAGCGUGGCGGCACCUGCCGCCGGUGGUAAAAAAGAUCGGAAGAGCACACGUCU [U7C U8C U10C U11C C12A C13U] | 1.24
15 | GGGUCGCCGCCAGAUAAUCGCGUGGAUAUGGCACGCAAGUUUCUACCGGGCACCGUAAAUGUCCGACUGGAGCCGUUCGGGCGGCUAUAAACAGACCUCAGGCCCGAAGCGUGGCGGCACCUGCCGCCGGUGGUAAAAAAGAUCGGAAGAGCACACGUCU [U7C U8C U10C U11C C12A C13G] | 1.24
16 | GGGUCGCCGCCUCAUAAUCGCGUGGAUAUGGCACGCAAGUUUCUACCGGGCACCGUAAAUGUCCGACUGGAGCCGUUCGGGCGGCUAUAAACAGACCUCAGGCCCGAAGCGUGGCGGCACCUGCCGCCGGUGGUAAAAAAGAUCGGAAGAGCACACGUCU [U7C U8C U10C U11C C12U] | 1.26
17 | GGGUCGCCGCCACAUAAUCGCGUGGAUAUGGCACGCAAGUUUCUACCGGGCACCGUAAAUGUCCGACUGGAGCCGUUCGGGCGGCUAUAAACAGACCUCAGGCCCGAAGCGUGGCGGCACCUGCCGCCGGUGGUAAAAAAGAUCGGAAGAGCACACGUCU [U7C U8C U10C U11C C12A] | 1.24
18 | GGGUCGCCGCCGCAUAAUCGCGUGGAUAUGGCACGCAAGUUUCUACCGGGCACCGUAAAUGUCCGACUGGAGCCGUUCGGGCGGCUAUAAACAGACCUCAGGCCCGAAGCGUGGCGGCACCUGCCGCCGGUGGUAAAAAAGAUCGGAAGAGCACACGUCU [U7C U8C U10C U11C C12G] | 1.2
